Consider four substances from patent US6891027.

For experiment [1], the target named is CD21 on Raji B lymphoblastoid cells (human) (UniProt P20023). Briefly: 50% inhibition of specific binding of [125I]HEL-C3d2 to Raji cells expressing CD21; two experiments.
Experiment [2] addresses CD21 on mouse B cells (mouse) (UniProt P19070). Briefly: cell-based or functional assay.
In experiment [3] the target is transgenic membrane IgM and IgD specific for HEL on mouse B cells. Briefly: transgenic B cells incubated with 3 nM protein for 10 min, free sites read by subsequent binding of fluorescein-conjugated HEL.
Experiment [4] has the same target. Briefly: cell-based or functional assay.

Sequence of CD21 on mouse B cells (mouse) (P19070 12-1025): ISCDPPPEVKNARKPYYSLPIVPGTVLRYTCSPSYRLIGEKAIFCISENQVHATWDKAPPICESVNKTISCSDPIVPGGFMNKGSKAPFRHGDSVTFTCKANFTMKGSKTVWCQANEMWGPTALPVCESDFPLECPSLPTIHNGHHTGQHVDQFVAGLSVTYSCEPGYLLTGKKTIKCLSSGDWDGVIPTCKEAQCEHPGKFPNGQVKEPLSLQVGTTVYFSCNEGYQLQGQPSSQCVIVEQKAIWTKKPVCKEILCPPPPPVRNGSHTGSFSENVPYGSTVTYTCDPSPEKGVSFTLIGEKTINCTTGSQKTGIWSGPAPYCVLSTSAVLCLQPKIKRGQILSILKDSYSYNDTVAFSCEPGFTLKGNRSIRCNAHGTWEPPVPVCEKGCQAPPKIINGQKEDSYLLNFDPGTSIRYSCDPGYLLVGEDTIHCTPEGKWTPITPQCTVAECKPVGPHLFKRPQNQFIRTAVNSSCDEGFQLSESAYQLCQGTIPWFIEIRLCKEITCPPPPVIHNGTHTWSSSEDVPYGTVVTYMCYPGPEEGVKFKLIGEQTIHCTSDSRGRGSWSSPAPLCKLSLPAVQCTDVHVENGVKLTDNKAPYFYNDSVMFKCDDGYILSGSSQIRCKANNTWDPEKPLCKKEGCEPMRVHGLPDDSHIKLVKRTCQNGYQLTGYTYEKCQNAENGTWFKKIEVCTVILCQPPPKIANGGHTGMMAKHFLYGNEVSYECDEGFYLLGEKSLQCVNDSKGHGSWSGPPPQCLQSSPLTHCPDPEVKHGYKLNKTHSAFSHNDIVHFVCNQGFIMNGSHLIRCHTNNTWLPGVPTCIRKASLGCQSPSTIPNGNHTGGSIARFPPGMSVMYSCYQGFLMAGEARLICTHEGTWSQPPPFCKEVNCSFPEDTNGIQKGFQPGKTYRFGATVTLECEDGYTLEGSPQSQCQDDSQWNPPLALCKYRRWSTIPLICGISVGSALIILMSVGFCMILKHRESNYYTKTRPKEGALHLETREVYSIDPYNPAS
Sequence of CD21 on Raji B lymphoblastoid cells (human) (P20023 21-1033): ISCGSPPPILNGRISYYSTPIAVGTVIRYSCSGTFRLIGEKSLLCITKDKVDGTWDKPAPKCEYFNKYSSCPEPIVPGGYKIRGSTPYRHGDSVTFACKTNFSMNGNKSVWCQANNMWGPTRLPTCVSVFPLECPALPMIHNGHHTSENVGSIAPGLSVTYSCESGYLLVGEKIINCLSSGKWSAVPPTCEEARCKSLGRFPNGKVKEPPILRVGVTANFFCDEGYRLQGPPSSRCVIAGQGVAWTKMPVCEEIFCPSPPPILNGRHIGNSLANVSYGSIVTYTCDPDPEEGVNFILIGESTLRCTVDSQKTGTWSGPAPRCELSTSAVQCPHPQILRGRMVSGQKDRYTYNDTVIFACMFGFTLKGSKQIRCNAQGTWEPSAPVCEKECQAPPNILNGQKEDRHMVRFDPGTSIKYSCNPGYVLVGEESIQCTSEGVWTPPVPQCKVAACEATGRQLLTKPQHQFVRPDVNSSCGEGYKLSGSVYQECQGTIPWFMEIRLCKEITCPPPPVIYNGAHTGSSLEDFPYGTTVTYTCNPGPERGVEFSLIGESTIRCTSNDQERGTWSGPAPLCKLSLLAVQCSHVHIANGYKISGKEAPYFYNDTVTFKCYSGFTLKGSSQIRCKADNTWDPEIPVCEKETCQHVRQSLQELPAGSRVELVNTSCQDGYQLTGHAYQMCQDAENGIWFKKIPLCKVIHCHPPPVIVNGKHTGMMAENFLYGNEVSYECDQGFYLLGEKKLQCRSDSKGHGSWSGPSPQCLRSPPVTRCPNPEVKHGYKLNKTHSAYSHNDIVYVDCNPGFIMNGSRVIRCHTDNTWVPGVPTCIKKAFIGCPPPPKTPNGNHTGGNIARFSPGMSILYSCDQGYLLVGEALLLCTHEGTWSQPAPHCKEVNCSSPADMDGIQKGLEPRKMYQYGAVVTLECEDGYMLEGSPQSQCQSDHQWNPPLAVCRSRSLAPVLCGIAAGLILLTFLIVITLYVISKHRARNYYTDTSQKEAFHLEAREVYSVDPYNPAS

“HEL-C3d2 recombinant fusion protein (hen egg lysozyme fused to two murine C3d) (from UniProt P00698 19-147; P01027 1006-1302; P01027 1006-1302)” gave an IC50 in experiment [1] of 8 to 20 nM. The substance further displayed a threshold for increase in [Ca2+]i in HEL-specific B cells in experiment [2] of 0.07 nM.

On to “HEL-C3d recombinant fusion protein (hen egg lysozyme fused to one murine C3d) (from UniProt P00698 19-147; P01027 1006-1302)”, for which the threshold for increase in [Ca2+]i in HEL-specific B cells in experiment [2] was 0.7 nM. “HEL-C3d3 recombinant fusion protein (hen egg lysozyme fused to three murine C3d) (from UniProt P00698 19-147; P01027 1006-1302; P01027 1006-1302; P01027 1006-1302)”: in experiment [3], the % saturation of the anti-HEL sites is 47%. Besides, the threshold for increase in [Ca2+]i in HEL-specific B cells in experiment [2] came to 0.007 nM. Turning to “recombinant hen egg lysozyme with YL1/2 epitope tag (HEL.YL) (from UniProt P00698 19-147)”, in experiment [3], the % saturation of the anti-HEL sites turned out to be 51%. For the same substance, the threshold for increase in [Ca2+]i in HEL-specific B cells (nM (printed as '7 n')) in experiment [4] was 7.

What is called IC50 is the point on the concentration scale where inhibition reaches its midpoint. A high value points to lower potency.
